# System: P41676
# Test: SEC
substance,measurement,value
"PK2 C181S/C211S (full-length PK2 from the baculovirus AcMNPV, stable mutant, C-terminal His-tag)",percent in the monomer peak,monomer (62%)
